According to IntAct's records for PubMed 14561633:

B1: Transcription factor GLABRA 3 (Arabidopsis thaliana (Mouse-ear cress)), Q9FN69 (parent)
chain: MATGQNRTTVPENLKKHLAVSVRNIQWSYGIFWSVSASQSGVLEWGDGYYNGDIKTRKTIQASEIKADQLGLRRSEQLSELYESLSVAESSSSGVAAGSQVTRRASAAALSPEDLADTEWYYLVCMSFVFNIGEGMPGRTFANGEPIWLCNAHTADSKVFSRSLLAKSAAVKTVVCFPFLGGVVEIGTTEHITEDMNVIQCVKTSFLEAPDPYATILPARSDYHIDNVLDPQQILGDEIYAPMFSTEPFPTASPSRTTNGFDQEHEQVADDHDSFMTERITGGASQVQSWQLMDDELSNCVHQSLNSSDCVSQTFVEGAAGRVAYGARKSRVQRLGQIQEQQRNVKTLSFDPRNDDVHYQSVISTIFKTNHQLILGPQFRNCDKQSSFTRWKKSSSSSSGTATVTAPSQGMLKKIIFDVPRVHQKEKLMLDSPEARDETGNHAVLEKKRREKLNERFMTLRKIIPSINKIDKVSILDDTIEYLQELERRVQELESCRESTDTETRGTMTMKRKKPCDAGERTSANCANNETGNGKKVSVNNVGEAEPADTGFTGLTDNLRIGSFGNEVVIELRCAWREGVLLEIMDVISDLHLDSHSVQSSTGDGLLCLTVNCKHKGSKIATPGMIKEALQRVAWIC
partner: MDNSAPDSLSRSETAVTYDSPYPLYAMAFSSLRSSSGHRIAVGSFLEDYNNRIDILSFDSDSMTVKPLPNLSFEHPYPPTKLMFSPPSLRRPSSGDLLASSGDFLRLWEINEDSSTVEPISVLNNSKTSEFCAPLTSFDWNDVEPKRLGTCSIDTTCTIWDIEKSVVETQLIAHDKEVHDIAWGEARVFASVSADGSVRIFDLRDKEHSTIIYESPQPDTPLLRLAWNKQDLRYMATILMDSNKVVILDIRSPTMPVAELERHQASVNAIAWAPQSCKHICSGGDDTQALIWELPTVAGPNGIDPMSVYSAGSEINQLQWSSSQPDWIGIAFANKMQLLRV
B2: Transcription factor GLABRA 3 (Arabidopsis thaliana (Mouse-ear cress)), Q9FN69 (parent)
chain: B1 chain
partner: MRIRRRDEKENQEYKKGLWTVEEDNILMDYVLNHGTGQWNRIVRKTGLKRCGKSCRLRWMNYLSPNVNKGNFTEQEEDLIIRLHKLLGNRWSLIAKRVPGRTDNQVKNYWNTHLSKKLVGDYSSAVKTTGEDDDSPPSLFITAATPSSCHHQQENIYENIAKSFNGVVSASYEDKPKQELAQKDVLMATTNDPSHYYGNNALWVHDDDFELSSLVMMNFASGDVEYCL

Variants of: B1
Conditions: with ttg1_arath TTG1, Q9XGN1

| Variant | effect of a mutation on the interaction |
| --- | --- |
| L78F | decreasing interaction |

Variants of: B2
Conditions: with gl1_arath GL1, P27900

| Variant | effect of a mutation on the interaction |
| --- | --- |
| L78F | decreasing interaction |
